Our source for the Kd values is US7462472B2 (priority 2001, dated 2008).

What is called Kd is the equilibrium constant for the complex coming apart. A lower Kd goes with higher affinity.

Assay [1] concerns the target CaM34/110-AEDANS/DAB, human CaM mutant [change]/[change] labeled with donor and acceptor (human) (UniProt P0DP23). Description: fluorescence (FRET) titration of donor-acceptor labeled CaM34/110 with CyaA1-412.
For assay [2], the target named is CaM (Homo sapiens, UniProt P0DP23, T111C/T35C). The assay is described as follows: biochemical. It counts as binding.

Chain of CyaA1-412, adenylyl cyclase domain (amino acids 1-412) of CyaA (J7QLC0 1-412): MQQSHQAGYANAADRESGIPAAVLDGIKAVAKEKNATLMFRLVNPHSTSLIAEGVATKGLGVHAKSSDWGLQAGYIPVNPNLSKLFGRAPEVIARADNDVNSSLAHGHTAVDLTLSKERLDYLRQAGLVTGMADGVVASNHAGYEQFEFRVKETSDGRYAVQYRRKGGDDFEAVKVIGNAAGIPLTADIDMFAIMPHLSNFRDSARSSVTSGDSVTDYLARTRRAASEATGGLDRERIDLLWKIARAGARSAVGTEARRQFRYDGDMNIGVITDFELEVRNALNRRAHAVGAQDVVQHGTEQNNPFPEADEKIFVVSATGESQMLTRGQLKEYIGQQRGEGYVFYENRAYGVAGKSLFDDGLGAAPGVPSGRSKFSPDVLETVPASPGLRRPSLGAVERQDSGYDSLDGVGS

The molecule “CyaA1-412, adenylyl cyclase domain (amino acids 1-412) of CyaA (from UniProt J7QLC0 1-412) (enzyme)” had a Kd in assay [1] of 10 µM. As to `CC[C@H](C)[C@H](NC(=O)CNC(=O)[C@H](Cc1ccc(O)cc1)NC(=O)[C@H](CCCCN)NC(=O)[C@@H](NC(=O)[C@H](CC(C)C)NC(=O)[C@H](CC(C)C)NC(=O)[C@H](CC(N)=O)NC(=O)[C@@H](NC(=O)[C@@H](NC(=O)CNC(=O)[C@H](CCCCN)NC(=O)[C@H](CCC(N)=O)NC(=O)[C@H](CCCCN)NC(=O)[C@H](CCC(=O)O)NC(=O)[C@H](CC(C)C)NC(=O)[C@H](CO)NC(=O)[C@@H](N)CC(N)=O)C(C)C)[C@@H](C)O)[C@@H](C)CC)C(=O)N[C@@H](CCC(=O)O)C(=O)O` [helix H peptide], the Kd in assay [2] was 8.8 µM.
